{"source": "paper doi:10.1101/2020.12.29.424679", "about": "(bioRxiv, 2020)", "molecules": {"B1": {"name": "Armadillo domain of HSF2BP (ARM, aa 122 to aa 334) (domain or fragment)", "chain": "EMGAAACTLLWGVSSSEEVVKAILGGDKALKFFSITGQTMESFVKSLDGDVQELDSDESQFVFALAGIVTNVAAIACGREFLVNSSRVLLDTILQLLGDLKPGQCTKLKVLMLMSLYNVSINLKGLKYISESPGFIPLLWWLLSDPDAEVCLHVLRLVQSVVLEPEVFSKSASEFRSSLPLQRILAMSKSRNPRLQTAAQELLEDLRTLEHNV"}}, "key": {"[1]": {"molecular_target": "Mouse HSF2BP-GFP (mouse (knock-in allele in mES cells)) (UniProt Q9D4G2)", "assay": "co-IP"}, "[2]": {"molecular_target": "T1, Human full length HSF2BP WT (human, UniProt O75031 1-334)", "T1 sequence": "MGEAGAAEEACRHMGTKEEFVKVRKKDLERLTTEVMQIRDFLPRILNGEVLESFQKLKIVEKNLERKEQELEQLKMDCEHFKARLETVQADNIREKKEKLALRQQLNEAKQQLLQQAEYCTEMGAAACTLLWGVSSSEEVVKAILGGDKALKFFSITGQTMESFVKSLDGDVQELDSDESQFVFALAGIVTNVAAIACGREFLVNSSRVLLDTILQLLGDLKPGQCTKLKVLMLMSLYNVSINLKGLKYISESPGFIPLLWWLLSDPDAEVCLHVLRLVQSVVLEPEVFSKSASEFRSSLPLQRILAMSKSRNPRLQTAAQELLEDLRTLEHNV", "assay": "ITC"}, "[3]": {"molecular_target": "Mouse BRCA2-GFP Δ12 (mouse (knock-in allele in mES cells)) (UniProt P97929)", "sequence (P97929 whole entry, stated change not applied)": "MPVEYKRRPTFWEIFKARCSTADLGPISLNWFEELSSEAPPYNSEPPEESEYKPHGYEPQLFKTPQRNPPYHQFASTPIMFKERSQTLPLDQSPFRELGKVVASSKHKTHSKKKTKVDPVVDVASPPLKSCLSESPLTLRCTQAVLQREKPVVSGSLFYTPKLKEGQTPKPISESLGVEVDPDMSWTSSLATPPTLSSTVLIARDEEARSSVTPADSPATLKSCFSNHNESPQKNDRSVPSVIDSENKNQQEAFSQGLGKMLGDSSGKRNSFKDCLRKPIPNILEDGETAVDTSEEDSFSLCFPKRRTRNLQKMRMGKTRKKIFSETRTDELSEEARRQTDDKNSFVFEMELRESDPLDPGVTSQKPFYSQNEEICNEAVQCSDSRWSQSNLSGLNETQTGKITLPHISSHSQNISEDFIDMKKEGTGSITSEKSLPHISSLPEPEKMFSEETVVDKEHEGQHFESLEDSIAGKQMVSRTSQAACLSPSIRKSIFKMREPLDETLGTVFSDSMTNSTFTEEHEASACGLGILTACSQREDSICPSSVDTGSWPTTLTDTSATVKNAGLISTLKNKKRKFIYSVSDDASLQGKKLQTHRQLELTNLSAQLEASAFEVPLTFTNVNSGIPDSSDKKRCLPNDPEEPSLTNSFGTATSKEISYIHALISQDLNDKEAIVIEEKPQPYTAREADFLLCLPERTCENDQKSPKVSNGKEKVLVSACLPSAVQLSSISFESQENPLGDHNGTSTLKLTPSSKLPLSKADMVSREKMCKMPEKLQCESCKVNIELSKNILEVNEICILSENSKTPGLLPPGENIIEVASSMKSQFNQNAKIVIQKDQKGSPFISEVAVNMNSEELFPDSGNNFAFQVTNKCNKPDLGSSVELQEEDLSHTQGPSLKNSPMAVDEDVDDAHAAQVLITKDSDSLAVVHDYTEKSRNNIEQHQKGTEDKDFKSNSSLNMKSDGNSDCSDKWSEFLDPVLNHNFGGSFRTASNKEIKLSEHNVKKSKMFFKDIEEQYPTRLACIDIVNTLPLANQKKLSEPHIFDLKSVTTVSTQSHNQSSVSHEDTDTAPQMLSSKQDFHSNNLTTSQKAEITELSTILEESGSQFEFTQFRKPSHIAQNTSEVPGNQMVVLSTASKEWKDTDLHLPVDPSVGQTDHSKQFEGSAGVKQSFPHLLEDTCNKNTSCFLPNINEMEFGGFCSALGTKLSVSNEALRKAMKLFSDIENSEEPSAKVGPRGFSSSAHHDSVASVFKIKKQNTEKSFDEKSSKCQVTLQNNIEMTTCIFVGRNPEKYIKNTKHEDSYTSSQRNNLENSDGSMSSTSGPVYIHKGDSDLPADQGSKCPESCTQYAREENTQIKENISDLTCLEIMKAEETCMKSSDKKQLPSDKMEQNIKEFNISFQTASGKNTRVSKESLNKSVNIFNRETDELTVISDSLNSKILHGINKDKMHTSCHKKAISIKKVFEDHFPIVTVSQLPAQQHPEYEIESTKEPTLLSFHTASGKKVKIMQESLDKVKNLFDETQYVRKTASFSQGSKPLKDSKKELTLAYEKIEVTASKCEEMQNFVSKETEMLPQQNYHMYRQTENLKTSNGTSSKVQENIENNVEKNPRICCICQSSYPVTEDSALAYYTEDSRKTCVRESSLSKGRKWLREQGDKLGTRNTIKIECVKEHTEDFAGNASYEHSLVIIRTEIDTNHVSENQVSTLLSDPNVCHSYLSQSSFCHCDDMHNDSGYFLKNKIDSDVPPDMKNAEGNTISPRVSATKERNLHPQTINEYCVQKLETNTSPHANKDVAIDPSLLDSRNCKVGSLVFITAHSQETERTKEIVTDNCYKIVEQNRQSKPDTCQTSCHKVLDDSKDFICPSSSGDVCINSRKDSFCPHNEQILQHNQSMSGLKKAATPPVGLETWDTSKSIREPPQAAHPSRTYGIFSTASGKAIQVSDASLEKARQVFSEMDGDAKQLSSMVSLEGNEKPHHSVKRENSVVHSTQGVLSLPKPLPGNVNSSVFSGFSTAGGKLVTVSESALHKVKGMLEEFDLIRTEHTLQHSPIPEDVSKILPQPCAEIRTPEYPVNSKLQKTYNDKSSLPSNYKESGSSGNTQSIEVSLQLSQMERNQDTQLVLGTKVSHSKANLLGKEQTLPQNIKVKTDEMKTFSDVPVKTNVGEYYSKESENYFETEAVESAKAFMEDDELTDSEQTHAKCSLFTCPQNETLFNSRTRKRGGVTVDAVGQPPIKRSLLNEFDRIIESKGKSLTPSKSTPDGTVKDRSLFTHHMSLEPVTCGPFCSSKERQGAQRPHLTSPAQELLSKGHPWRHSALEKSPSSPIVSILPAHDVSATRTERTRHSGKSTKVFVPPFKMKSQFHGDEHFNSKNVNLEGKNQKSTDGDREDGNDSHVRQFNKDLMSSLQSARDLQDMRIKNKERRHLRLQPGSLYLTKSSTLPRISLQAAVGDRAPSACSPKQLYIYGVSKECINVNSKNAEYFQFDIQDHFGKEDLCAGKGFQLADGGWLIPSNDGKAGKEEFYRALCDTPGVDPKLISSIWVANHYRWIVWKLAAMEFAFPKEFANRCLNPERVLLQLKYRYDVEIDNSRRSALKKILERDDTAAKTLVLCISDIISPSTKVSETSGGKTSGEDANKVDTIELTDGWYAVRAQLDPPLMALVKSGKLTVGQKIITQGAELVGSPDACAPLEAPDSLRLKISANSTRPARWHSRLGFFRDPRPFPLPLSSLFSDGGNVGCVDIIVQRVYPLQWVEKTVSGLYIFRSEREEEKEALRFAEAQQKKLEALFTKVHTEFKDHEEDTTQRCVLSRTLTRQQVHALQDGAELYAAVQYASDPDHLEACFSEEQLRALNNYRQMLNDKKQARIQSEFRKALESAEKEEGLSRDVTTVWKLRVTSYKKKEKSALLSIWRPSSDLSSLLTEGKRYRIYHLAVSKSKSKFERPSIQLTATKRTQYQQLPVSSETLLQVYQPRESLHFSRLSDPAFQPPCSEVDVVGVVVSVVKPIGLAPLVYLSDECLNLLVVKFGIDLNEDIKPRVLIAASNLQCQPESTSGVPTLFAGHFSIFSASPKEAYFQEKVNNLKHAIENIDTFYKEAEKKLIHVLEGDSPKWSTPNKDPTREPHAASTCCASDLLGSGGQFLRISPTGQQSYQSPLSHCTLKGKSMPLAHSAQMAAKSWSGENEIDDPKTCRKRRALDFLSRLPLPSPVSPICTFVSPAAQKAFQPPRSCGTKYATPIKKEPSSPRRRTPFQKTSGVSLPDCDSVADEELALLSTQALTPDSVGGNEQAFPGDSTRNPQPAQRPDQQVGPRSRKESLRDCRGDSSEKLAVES", "assay": "co-IP"}, "[4]": {"molecular_target": "B1", "assay": "ITC"}, "SEC-MALS": {"molecular_target": "the molecule itself", "assay": "SEC-MALS"}, "[5]": {"molecular_target": "the molecule itself", "assay": "SEC-MALS + other: SEC-SAXS"}}, "data": [{"molecule": "Mouse BRCA2-Δ12 (from UniProt P97929 1-3329) (natural protein)", "values": [{"measurement": "percent loss of co-precipitation against wild-type BRCA2", "setting": "[1]", "result": "97 to 99", "unit": "%"}]}, {"molecule": "BRCA2 peptide F15XΔ12 (D2312-E2342)", "values": [{"measurement": "fold weaker affinity than HSF2BP for F0", "setting": "[2]", "result": 1000, "unit": "fold"}, {"measurement": "stoichiometry N", "setting": "[2]", "result": 1}]}, {"molecule": "Mouse HSF2BP, natively expressed in ES cells (natural protein) MAATVGDGSGTEEACRNMESKEEFVKVRKKDLERLTTEVMQIRDFLPRILNGELLESFQKLKMVEKNLERKEQELEQLIMDREHFKARLETAQADSGREKKEKLALRQQLNEAKQQLLQQAEYCTQMGAVTCTLLWGVSSSEEVVKTILGGDKALKFFNITGQTMESFVKSLDGDVKEVDSDENQFVFALAGIVTNVAAIACGREFLVNSSRVLLDTMLQLLGDLKPGQCTKLKVLMLMSLYNVSINSKGLKYITESPGFIPLLWWLLSDPDAEVCLHTLRLIQSVVLEPDVFSKVASELQSSLPLQRILAMSKSRNSHLQSAAQELLEDLRALDCNV", "values": [{"measurement": "percent loss of co-precipitation against full-length BRCA2-GFP", "setting": "[3]", "result": 95, "unit": "%"}]}, {"molecule": "Human BRCA2 fragment F0 (S2213-Q2342, C2332T) (domain or fragment) STYSKDSENYFETEAVEIAKAFMEDDELTDSKLPSHATHSLFTCPENEEMVLSNSRIGKRRGEPLILVGEPSIKRNLLNEFDRIIENQEKSLKASKSTPDGTIKDRRLFMHHVSLEPITTVPFRTTKERQ", "values": [{"measurement": "stoichiometry N", "setting": "[4]", "result": 0.5}, {"measurement": "Kd", "setting": "[2]", "result": 0.001, "unit": "µM"}, {"measurement": "fold tighter binding than ARM to F0", "setting": "[2]", "result": "~25", "unit": "fold"}, {"measurement": "stoichiometry N", "setting": "[2]", "result": 0.5}]}, {"molecule": "Human BRCA2 fragment FNMR (S2252-Q2342) (domain or fragment) SLFTCPENEEMVLSNSRIGKRRGEPLILVGEPSIKRNLLNEFDRIIENQEKSLKASKSTPDGTIKDRRLFMHHVSLEPITTVPFRTTKERQ", "values": [{"measurement": "Kd", "setting": "[4]", "result": "~0.01", "unit": "µM"}, {"measurement": "fold higher affinity than ARM for F0", "setting": "[4]", "result": "~3", "unit": "fold"}]}, {"molecule": "Human BRCA2 fragment F15X (N2291-Q2342) (peptide) NEFDRIIENQEKSLKASKSTPDGTIKDRRLFMHHVSLEPITTVPFRTTKERQ", "values": [{"measurement": "Kd", "setting": "[4]", "result": "~0.01", "unit": "µM"}, {"measurement": "fold higher affinity than ARM for F0", "setting": "[4]", "result": "~3", "unit": "fold"}]}, {"molecule": "B1", "values": [{"measurement": "stoichiometry N", "setting": "SEC-MALS", "result": 2}, {"measurement": "stoichiometry N", "setting": "[5]", "result": 4}]}]}
